Source: US20240270846A1 (published 2024)
Substitutions are numbered along the chain they refer to. Names and notes keep the numbering of the source.

B1: GLS3000 R24Q one-arm antibody (H chain CE115HA000) (antibody, human IgG1, kappa, L234A L235A, N297A, name in Kabat numbering)
heavy: QVQLVESGGGVVQPGRSLRLSCAASGFTFSNAWMHWVRQAPGKGLEWVAQIKAKSNNYATYYAESVKGRFTISRDDSKNSLYLQMNSLKTEDTAVYYCRYVHYGAYYGVDAWGQGTTVTVSSASTKGPSVFPLAPSSKSTSGGTAALGCLVKDYFPEPVTVSWNSGALTSGVHTFPAVLQSSGLYSLSSVVTVPSSSLGTQTYICNVNHKPSNTKVDKKVEPKSCDKTHTCPPCPAPEAAGGPSVFLFPPKPKDTLMISRTPEVTCVVVDVSHEDPEVKFNWYVDGVEVHNAKTKPREEQYASTYRVVSVLTVLHQDWLNGKEYKCKVSNKALPAPIEKTISKAKGQPREPQVYTLPPSRCELTKNQVSLSCAVKGFYPSDIAVEWESNGQPENNYKTTPPVLDSDGSFFLVSKLTVDKSRWQQGNVFSCSVMHEALHNHYTQKSLSLSPDYKDDDDK
chain: EPKSSDKTHTCPPCPAPELLGGPSVFLFPPKPKDTLMISRTPEVTCVVVDVSHEDPEVKFNWYVDGVEVHNAKTKPREEQYNSTYRVVSVLTVLHQDWLNGKEYKCKVSNKALPAPIEKTISKAKGQPREPQVCTLPPSRDELTKNQVSLWCLVKGFYPSDIAVEWESNGQPENNYKTTPPVLDSDGSFFLYSKLTVDKSRWQQGNVFSCSVMHEALHNRYTQKSLSLSP
light: DIVMTQSPLSLPVTPGEPASISCQSSQSLVHSNRNTYLHWYQQKPGQAPRLLIYKVSNRFSGVPDRFSGSGSGTDFTLKISRVEAEDVGVYYCGQGTQVPYTFGQGTKLEIKRTVAAPSVFIFPPSDEQLKSGTASVVCLLNNFYPREAKVQWKVDNALQSGNSQESVTEQDSKDSTYSLSSTLTLSKADYEKHKVYACEVTHQGLSSPVTKSFNRGEC
notes: one-arm antibody
B2: GLS3000 R24T one-arm antibody (H chain CE115HA000) (antibody, human IgG1, kappa, L234A L235A, N297A, name in Kabat numbering)
heavy: B1 heavy
chain: B1 chain
light: B1 light with Q24T
notes: one-arm antibody
B3: GLS3000 S26E one-arm antibody (H chain CE115HA000) (antibody, human IgG1, kappa, L234A L235A, N297A, name in Kabat numbering)
heavy: B1 heavy
chain: B1 chain
light: B1 light with Q24R, S26E
notes: one-arm antibody
B4: GLS3000 S25V one-arm antibody (H chain CE115HA000) (antibody, human IgG1, kappa, L234A L235A, N297A, name in Kabat numbering)
heavy: B1 heavy
chain: B1 chain
light: B1 light with Q24R, S25V
notes: one-arm antibody
B5: GLS3000 S25P one-arm antibody (H chain CE115HA000) (antibody, human IgG1, kappa, L234A L235A, N297A, name in Kabat numbering)
heavy: B1 heavy
chain: B1 chain
light: B1 light with Q24R, S25P
notes: one-arm antibody
B6: GLS3000 S25D one-arm antibody (H chain CE115HA000) (antibody, human IgG1, kappa, L234A L235A, N297A, name in Kabat numbering)
heavy: B1 heavy
chain: B1 chain
light: B1 light with Q24R, S25D
notes: one-arm antibody
B7: GLS3000 R54D one-arm antibody (H chain CE115HA000) (antibody, human IgG1, kappa, L234A L235A, N297A, name in Kabat numbering)
heavy: B1 heavy
chain: B1 chain
light: B1 light with Q24R, R59D
notes: one-arm antibody
B8: GLS3000 R24Y one-arm antibody (H chain CE115HA000) (antibody, human IgG1, kappa, L234A L235A, N297A, name in Kabat numbering)
heavy: B1 heavy
chain: B1 chain
light: B1 light with Q24Y
notes: one-arm antibody
B9: GLS3000 S25E one-arm antibody (H chain CE115HA000) (antibody, human IgG1, kappa, L234A L235A, N297A, name in Kabat numbering)
heavy: B1 heavy
chain: B1 chain
light: B1 light with Q24R, S25E
notes: one-arm antibody
B10: GLS3000 S26D one-arm antibody (H chain CE115HA000) (antibody, human IgG1, kappa, L234A L235A, N297A, name in Kabat numbering)
heavy: B1 heavy
chain: B1 chain
light: B1 light with Q24R, S26D
notes: one-arm antibody
B11: GLS3000 R29D one-arm antibody (H chain CE115HA000) (antibody, human IgG1, kappa, L234A L235A, N297A, name in Kabat numbering)
heavy: B1 heavy
chain: B1 chain
light: B1 light with Q24R, R34D
notes: one-arm antibody
B12: GLS3000 S25A one-arm antibody (H chain CE115HA000) (antibody, human IgG1, kappa, L234A L235A, N297A, name in Kabat numbering)
heavy: B1 heavy
chain: B1 chain
light: B1 light with Q24R, S25A
notes: one-arm antibody
B13: GLS3000 R29G one-arm antibody (H chain CE115HA000) (antibody, human IgG1, kappa, L234A L235A, N297A, name in Kabat numbering)
heavy: B1 heavy
chain: B1 chain
light: B1 light with Q24R, R34G
notes: one-arm antibody
B14: GLS3000 S27aE one-arm antibody (H chain CE115HA000) (antibody, human IgG1, kappa, L234A L235A, N297A, name in Kabat numbering)
heavy: B1 heavy
chain: B1 chain
light: B1 light with Q24R, S28E
notes: one-arm antibody
B15: GLS3000 R29Y one-arm antibody (H chain CE115HA000) (antibody, human IgG1, kappa, L234A L235A, N297A, name in Kabat numbering)
heavy: B1 heavy
chain: B1 chain
light: B1 light with Q24R, R34Y
notes: one-arm antibody
B16: GLS3000 R29P one-arm antibody (H chain CE115HA000) (antibody, human IgG1, kappa, L234A L235A, N297A, name in Kabat numbering)
heavy: B1 heavy
chain: B1 chain
light: B1 light with Q24R, R34P
notes: one-arm antibody
B17: GLS3000 R29A one-arm antibody (H chain CE115HA000) (antibody, human IgG1, kappa, L234A L235A, N297A, name in Kabat numbering)
heavy: B1 heavy
chain: B1 chain
light: B1 light with Q24R, R34A
notes: one-arm antibody
B18: GLS3000 S25M one-arm antibody (H chain CE115HA000) (antibody, human IgG1, kappa, L234A L235A, N297A, name in Kabat numbering)
heavy: B1 heavy
chain: B1 chain
light: B1 light with Q24R, S25M
notes: one-arm antibody
B19: GLS3000 R29I one-arm antibody (H chain CE115HA000) (antibody, human IgG1, kappa, L234A L235A, N297A, name in Kabat numbering)
heavy: B1 heavy
chain: B1 chain
light: B1 light with Q24R, R34I
notes: one-arm antibody
B20: GLS3000 R54A one-arm antibody (H chain CE115HA000) (antibody, human IgG1, kappa, L234A L235A, N297A, name in Kabat numbering)
heavy: B1 heavy
chain: B1 chain
light: B1 light with Q24R, R59A
notes: one-arm antibody
B21: GLS3000 S25I one-arm antibody (H chain CE115HA000) (antibody, human IgG1, kappa, L234A L235A, N297A, name in Kabat numbering)
heavy: B1 heavy
chain: B1 chain
light: B1 light with Q24R, S25I
notes: one-arm antibody
B22: GLS3000 R29T one-arm antibody (H chain CE115HA000) (antibody, human IgG1, kappa, L234A L235A, N297A, name in Kabat numbering)
heavy: B1 heavy
chain: B1 chain
light: B1 light with Q24R, R34T
notes: one-arm antibody
B23: GLS3000 S27aD one-arm antibody (H chain CE115HA000) (antibody, human IgG1, kappa, L234A L235A, N297A, name in Kabat numbering)
heavy: B1 heavy
chain: B1 chain
light: B1 light with Q24R, S28D
notes: one-arm antibody
B24: GLS3000 S26P one-arm antibody (H chain CE115HA000) (antibody, human IgG1, kappa, L234A L235A, N297A, name in Kabat numbering)
heavy: B1 heavy
chain: B1 chain
light: B1 light with Q24R, S26P
notes: one-arm antibody
B25: GLS3000 R29S one-arm antibody (H chain CE115HA000) (antibody, human IgG1, kappa, L234A L235A, N297A, name in Kabat numbering)
heavy: B1 heavy
chain: B1 chain
light: B1 light with Q24R, R34S
notes: one-arm antibody
B26: GLS3000 S27aG one-arm antibody (H chain CE115HA000) (antibody, human IgG1, kappa, L234A L235A, N297A, name in Kabat numbering)
heavy: B1 heavy
chain: B1 chain
light: B1 light with Q24R, S28G
notes: one-arm antibody
B27: GLS3000 S25T one-arm antibody (H chain CE115HA000) (antibody, human IgG1, kappa, L234A L235A, N297A, name in Kabat numbering)
heavy: B1 heavy
chain: B1 chain
light: B1 light with Q24R, S25T
notes: one-arm antibody
B28: GLS3000 R29V one-arm antibody (H chain CE115HA000) (antibody, human IgG1, kappa, L234A L235A, N297A, name in Kabat numbering)
heavy: B1 heavy
chain: B1 chain
light: B1 light with Q24R, R34V
notes: one-arm antibody
B29: GLS3000 R24S one-arm antibody (H chain CE115HA000) (antibody, human IgG1, kappa, L234A L235A, N297A, name in Kabat numbering)
heavy: B1 heavy
chain: B1 chain
light: B1 light with Q24S
notes: one-arm antibody
B30: GLS3000 S27aI one-arm antibody (H chain CE115HA000) (antibody, human IgG1, kappa, L234A L235A, N297A, name in Kabat numbering)
heavy: B1 heavy
chain: B1 chain
light: B1 light with Q24R, S28I
notes: one-arm antibody
B31: GLS3000 S25L one-arm antibody (H chain CE115HA000) (antibody, human IgG1, kappa, L234A L235A, N297A, name in Kabat numbering)
heavy: B1 heavy
chain: B1 chain
light: B1 light with Q24R, S25L
notes: one-arm antibody
B32: GLS3000 R29L one-arm antibody (H chain CE115HA000) (antibody, human IgG1, kappa, L234A L235A, N297A, name in Kabat numbering)
heavy: B1 heavy
chain: B1 chain
light: B1 light with Q24R, R34L
notes: one-arm antibody

target: T1, CD3 epsilon homodimer protein (UniProt P07766 23-126); assay: SPR, CD3e homodimer on chip;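 note: surface plasmon resonance at 25 degrees C, antibodies flowed as analyte over CD3 epsilon homodimer amine-coupled to a CM4 chip, running buffer HBS-EP+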
T1 construct: also called CD3 (CD3 epsilon)
T1 sequence (P07766 23-126): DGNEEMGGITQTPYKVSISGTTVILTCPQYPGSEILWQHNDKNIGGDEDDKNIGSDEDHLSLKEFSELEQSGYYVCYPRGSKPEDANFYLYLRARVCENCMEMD

Compared with B1, B2 is lower in “ratio of amounts bound (altered form / unaltered GLS3000 antibody)” value: 0.9 for the first, 0.88 for the second.

Going from B3 to B4, the “ratio of amounts bound (altered form / unaltered GLS3000 antibody)” value falls from 0.74 to 0.73.

First: B5
Second: B6
The “ratio of amounts bound (altered form / unaltered GLS3000 antibody)” value of the first is higher: 1.01 for the first, 0.18 for the second.

Compared with B7, B8 is higher in “ratio of amounts bound (altered form / unaltered GLS3000 antibody)” value: 0.36 for the first, 0.87 for the second.

Going from B9 to B10, the “ratio of amounts bound (altered form / unaltered GLS3000 antibody)” value rises from 0.21 to 0.86.

First: B11
Second: B12
The “ratio of amounts bound (altered form / unaltered GLS3000 antibody)” value of the first is lower: 0.41 for the first, 0.92 for the second.

Going from B13 to B14, the “ratio of amounts bound (altered form / unaltered GLS3000 antibody)” value rises from 0.67 to 0.81.

Compared with B15, B16 is lower in “ratio of amounts bound (altered form / unaltered GLS3000 antibody)” value: 0.69 for the first, 0.31 for the second.

Going from B17 to B18, the “ratio of amounts bound (altered form / unaltered GLS3000 antibody)” value falls from 0.63 to 0.31.

Compared with B19, B20 is higher in “ratio of amounts bound (altered form / unaltered GLS3000 antibody)” value: 0.37 for the first, 0.69 for the second.

First: B21
Second: B22
The “ratio of amounts bound (altered form / unaltered GLS3000 antibody)” value of the first is lower: 0.53 for the first, 0.63 for the second.

First: B23
Second: B24
The “ratio of amounts bound (altered form / unaltered GLS3000 antibody)” value of the first is higher: 0.79 for the first, 0.78 for the second.

Compared with B25, B26 is higher in “ratio of amounts bound (altered form / unaltered GLS3000 antibody)” value: 0.68 for the first, 1.03 for the second.

Compared with B27, B28 is lower in “ratio of amounts bound (altered form / unaltered GLS3000 antibody)” value: 0.83 for the first, 0.34 for the second.

Compared with B29, B30 is higher in “ratio of amounts bound (altered form / unaltered GLS3000 antibody)” value: 0.89 for the first, 1 for the second.

Going from B31 to B32, the “ratio of amounts bound (altered form / unaltered GLS3000 antibody)” value rises from 0.24 to 0.56.
